# Laboratory results published in the MegaScale stability set (Tsuboyama et al. 2023).
# B1: r16_88_TrROS_Hall (parent)
# chain: EVIELKIKFKTPEQREKLKEIAKKLNAEVVEEKDGEVIIRFKTPEQAERALKEAEKLGAEVEL
# Variants of: B1
# Experiment: folding stability dG (cDNA display proteolysis); higher = more stable
# Details: PBS, room temperature
row,Variant,folding stability dG
1,L57R,3.57 kcal/mol
2,L57T,4.04 kcal/mol
3,L57Y,4.28 kcal/mol
4,L57H,4.26 kcal/mol
5,L57P,3.32 kcal/mol
6,L57G,3.96 kcal/mol
7,L57I,4.43 kcal/mol
8,L57K,3.5 kcal/mol
9,L57S,4.26 kcal/mol
10,L57M,4.31 kcal/mol
11,L57W,4.6 kcal/mol
12,L57D,4.08 kcal/mol
13,L57E,4.36 kcal/mol
14,L57Q,4.25 kcal/mol
15,L57F,4.33 kcal/mol
16,L57A,4.15 kcal/mol
17,L57C,4.2 kcal/mol
18,L57V,4.5 kcal/mol
19,L57N,4.35 kcal/mol
20,F41C,4.28 kcal/mol
21,F41N,3.33 kcal/mol
22,F41S,4.03 kcal/mol
23,F41D,0.465 kcal/mol
24,F41T,3.73 kcal/mol

row,Variant,folding stability dG
1,F41W,4 kcal/mol
2,F41R,1.04 kcal/mol
3,F41M,4.14 kcal/mol
4,F41L,4.01 kcal/mol
5,F41A,4.49 kcal/mol
6,F41P,3.46 kcal/mol
7,F41G,3.01 kcal/mol
8,F41E,0.961 kcal/mol
9,F41I,4.16 kcal/mol
10,F41Y,4.23 kcal/mol
11,F41K,0.67 kcal/mol
12,F41Q,2.23 kcal/mol
13,F41H,3.13 kcal/mol
14,F41V,4.09 kcal/mol
15,A50F,4.38 kcal/mol
16,A50K,2.55 kcal/mol
17,A50C,4.36 kcal/mol
18,A50N,3.58 kcal/mol
19,A50V,4.41 kcal/mol
20,A50I,4.4 kcal/mol
21,A50L,4.28 kcal/mol
22,A50T,4.26 kcal/mol
23,A50H,3.68 kcal/mol
24,A50E,3.34 kcal/mol

row,Variant,folding stability dG
1,A50R,2.59 kcal/mol
2,A50G,4.46 kcal/mol
3,A50W,4.69 kcal/mol
4,A50M,4.3 kcal/mol
5,A50P,2.96 kcal/mol
6,A50Y,4.43 kcal/mol
7,A50Q,3.84 kcal/mol
8,A50D,2.77 kcal/mol
9,A50S,3.9 kcal/mol
10,E45K,4.42 kcal/mol
11,E45Q,4.38 kcal/mol
12,E45L,4.29 kcal/mol
13,E45T,4.61 kcal/mol
14,E45Y,4.73 kcal/mol
15,E45A,4.33 kcal/mol
16,E45F,4.44 kcal/mol
17,E45W,4.37 kcal/mol
18,E45C,4.77 kcal/mol
19,E45N,4.39 kcal/mol
20,E45P,4.16 kcal/mol
21,E45M,4.46 kcal/mol
22,E45H,4.08 kcal/mol
23,E45I,4.5 kcal/mol
24,E45S,4.29 kcal/mol

row,Variant,folding stability dG
1,E45D,4.22 kcal/mol
2,E45V,4.24 kcal/mol
3,E45G,4.38 kcal/mol
4,E45R,4.37 kcal/mol
5,A47K,4.65 kcal/mol
6,A47C,4.46 kcal/mol
7,A47W,4.78 kcal/mol
8,A47Y,4.79 kcal/mol
9,A47N,3.68 kcal/mol
10,A47Q,4.8 kcal/mol
11,A47S,4.39 kcal/mol
12,A47E,4.18 kcal/mol
13,A47I,4.51 kcal/mol
14,A47R,4.53 kcal/mol
15,A47L,4.65 kcal/mol
16,A47T,4.34 kcal/mol
17,A47H,4.42 kcal/mol
18,A47G,4.28 kcal/mol
19,A47F,4.52 kcal/mol
20,A47V,4.63 kcal/mol
21,A47D,3.16 kcal/mol
22,A47M,4.39 kcal/mol
23,A47P,3.25 kcal/mol
24,E53V,4.36 kcal/mol

row,Variant,folding stability dG
1,E53I,4.27 kcal/mol
2,E53P,3.08 kcal/mol
3,E53F,4.49 kcal/mol
4,E53G,4.07 kcal/mol
5,E53D,4.34 kcal/mol
6,E53N,3.87 kcal/mol
7,E53K,4.02 kcal/mol
8,E53W,4.37 kcal/mol
9,E53T,4.03 kcal/mol
10,E53R,4.03 kcal/mol
11,E53M,4.39 kcal/mol
12,E53S,4.21 kcal/mol
13,E53C,4.4 kcal/mol
14,E53L,4.61 kcal/mol
15,E53H,4.17 kcal/mol
16,E53Q,4.42 kcal/mol
17,E53Y,4.3 kcal/mol
18,E53A,4.13 kcal/mol
19,A54N,3.65 kcal/mol
20,A54Y,4.16 kcal/mol
21,A54G,4.09 kcal/mol
22,A54H,3.5 kcal/mol
23,A54P,2.86 kcal/mol
24,A54W,4.08 kcal/mol

row,Variant,folding stability dG
1,A54I,4.43 kcal/mol
2,A54C,4.41 kcal/mol
3,A54V,4.43 kcal/mol
4,A54L,4.35 kcal/mol
5,A54D,2.86 kcal/mol
6,A54K,3.51 kcal/mol
7,A54M,4.44 kcal/mol
8,A54Q,3.6 kcal/mol
9,A54T,4.19 kcal/mol
10,A54R,3.4 kcal/mol
11,A54F,4.35 kcal/mol
12,A54E,3.03 kcal/mol
13,A54S,4.45 kcal/mol
14,R40Q,4.07 kcal/mol
15,R40V,4.64 kcal/mol
16,R40S,4.38 kcal/mol
17,R40P,2.96 kcal/mol
18,R40Y,4.86 kcal/mol
19,R40W,4.77 kcal/mol
20,R40T,4.79 kcal/mol
21,P44E,4.1 kcal/mol
22,P44N,4.55 kcal/mol
23,P44D,4.15 kcal/mol
24,P44I,4.34 kcal/mol

row,Variant,folding stability dG
1,P44C,4.66 kcal/mol
2,P44Y,4.39 kcal/mol
3,P44M,4.59 kcal/mol
4,P44L,4.65 kcal/mol
5,P44T,4.46 kcal/mol
6,P44H,4.75 kcal/mol
7,P44Q,4.56 kcal/mol
8,P44S,4.49 kcal/mol
9,P44V,4.35 kcal/mol
10,P44W,4.58 kcal/mol
11,P44R,4.18 kcal/mol
12,P44G,4.37 kcal/mol
13,P44A,4.58 kcal/mol
14,P44K,4.61 kcal/mol
15,P44F,4.54 kcal/mol
16,E55Y,4.66 kcal/mol
17,E55V,4.51 kcal/mol
18,E55M,4.37 kcal/mol
19,E55F,4.59 kcal/mol
20,E55T,4.31 kcal/mol
21,E55H,4.21 kcal/mol
22,E55N,4.42 kcal/mol
23,E55G,4.22 kcal/mol
24,E55L,4.45 kcal/mol

row,Variant,folding stability dG
1,E55S,4.51 kcal/mol
2,E55R,4.57 kcal/mol
3,E55D,4.27 kcal/mol
4,E55P,3.67 kcal/mol
5,E55C,4.43 kcal/mol
6,E55I,4.46 kcal/mol
7,E55A,4.43 kcal/mol
8,E55Q,4.48 kcal/mol
9,E55W,4.58 kcal/mol
10,E55K,4.3 kcal/mol
11,K42T,4.13 kcal/mol
12,K42W,4.26 kcal/mol
13,K42D,4.01 kcal/mol
14,K42G,4.03 kcal/mol
15,K42A,4.1 kcal/mol
16,K42S,4.23 kcal/mol
17,K42Y,4.36 kcal/mol
18,K42M,4.18 kcal/mol
19,K42V,4.19 kcal/mol
20,K42F,4.33 kcal/mol
21,K42E,3.81 kcal/mol
22,K42P,3.79 kcal/mol
23,K42Q,3.95 kcal/mol
24,K42I,4.37 kcal/mol

row,Variant,folding stability dG
1,K42R,4.62 kcal/mol
2,K42N,4.18 kcal/mol
3,K42H,4.1 kcal/mol
4,K42C,4.29 kcal/mol
5,K42L,4.13 kcal/mol
6,L51N,4.3 kcal/mol
7,L51G,4.45 kcal/mol
8,L51K,4.61 kcal/mol
9,L51S,4.59 kcal/mol
10,L51D,3.96 kcal/mol
11,L51H,4.79 kcal/mol
12,L51F,4.4 kcal/mol
13,L51I,4.41 kcal/mol
14,L51M,4.4 kcal/mol
15,L51W,4.25 kcal/mol
16,L51P,2.79 kcal/mol
17,L51C,4.41 kcal/mol
18,L51T,4.76 kcal/mol
19,L51Q,4.53 kcal/mol
20,L51Y,4.08 kcal/mol
21,L51R,4.61 kcal/mol
22,L51V,4.39 kcal/mol
23,L51A,4.43 kcal/mol
24,E48T,4.28 kcal/mol

row,Variant,folding stability dG
1,E48I,4.17 kcal/mol
2,E48P,3.89 kcal/mol
3,E48N,4.62 kcal/mol
4,E48H,4.52 kcal/mol
5,E48M,4.46 kcal/mol
6,E48G,4.28 kcal/mol
7,E48R,4.25 kcal/mol
8,E48A,4.5 kcal/mol
9,E48V,4.17 kcal/mol
10,E48L,4.29 kcal/mol
11,E48S,4.39 kcal/mol
12,E48W,4.47 kcal/mol
13,E48D,4.47 kcal/mol
14,E48Y,4.67 kcal/mol
15,E48F,4.72 kcal/mol
16,E48C,4.52 kcal/mol
17,E48Q,4.37 kcal/mol
18,E48K,4.67 kcal/mol
19,K56H,4.33 kcal/mol
20,K56S,4.51 kcal/mol
21,K56F,4.23 kcal/mol
22,K56T,4.48 kcal/mol
23,K56L,4.5 kcal/mol
24,K56C,4.41 kcal/mol

row,Variant,folding stability dG
1,K56G,4.53 kcal/mol
2,K56P,4.5 kcal/mol
3,K56I,4.52 kcal/mol
4,K56Q,4.43 kcal/mol
5,K56N,4.44 kcal/mol
6,K56R,4.15 kcal/mol
7,K56V,4.45 kcal/mol
8,K56D,4.21 kcal/mol
9,K56E,4.28 kcal/mol
10,K56Y,4.41 kcal/mol
11,K56A,4.49 kcal/mol
12,K56W,4.26 kcal/mol
13,K56M,4.57 kcal/mol
14,T43G,4.08 kcal/mol
15,T43E,3.61 kcal/mol
16,T43W,4.29 kcal/mol
17,T43L,4.67 kcal/mol
18,T43Q,4.3 kcal/mol
19,T43D,3.85 kcal/mol
20,T43P,3.06 kcal/mol
21,T43N,3.86 kcal/mol
22,T43F,4.41 kcal/mol
23,T43C,4.63 kcal/mol
24,T43S,4.53 kcal/mol

row,Variant,folding stability dG
1,T43R,4.06 kcal/mol
2,T43H,4.57 kcal/mol
3,T43K,4.36 kcal/mol
4,T43V,4.27 kcal/mol
5,T43A,4.45 kcal/mol
6,T43I,4.48 kcal/mol
7,T43Y,4.43 kcal/mol
8,T43M,4.56 kcal/mol
9,G58D,4.42 kcal/mol
10,G58H,4.27 kcal/mol
11,G58C,4.28 kcal/mol
12,G58E,4.12 kcal/mol
13,G58F,4.24 kcal/mol
14,G58A,4.3 kcal/mol
15,K52D,4.25 kcal/mol
16,K52Q,4.1 kcal/mol
17,K52I,4.03 kcal/mol
18,K52G,4.44 kcal/mol
19,K52S,4.28 kcal/mol
20,K52A,4.52 kcal/mol
21,K52L,4.44 kcal/mol
22,K52T,4.23 kcal/mol
23,K52Y,4.67 kcal/mol
24,K52H,4.31 kcal/mol

row,Variant,folding stability dG
1,K52V,4.2 kcal/mol
2,K52W,4.43 kcal/mol
3,K52M,4.28 kcal/mol
4,K52R,4.45 kcal/mol
5,K52E,4.07 kcal/mol
6,K52N,4.26 kcal/mol
7,K52F,4.62 kcal/mol
8,K52C,4.33 kcal/mol
9,K52P,3.91 kcal/mol
10,R49F,4.76 kcal/mol
11,R49Q,4.41 kcal/mol
12,R49Y,4.93 kcal/mol
13,R49V,4.5 kcal/mol
14,R49S,4.48 kcal/mol
15,R49P,4.17 kcal/mol
16,R49I,4.49 kcal/mol
17,R49C,4.42 kcal/mol
18,R49G,4.37 kcal/mol
19,R49K,4.15 kcal/mol
20,R49M,4.46 kcal/mol
21,R49L,4.53 kcal/mol
22,R49E,4.52 kcal/mol
23,R49D,4.56 kcal/mol
24,R49N,4.35 kcal/mol

row,Variant,folding stability dG
1,R49A,4.37 kcal/mol
2,R49T,4.04 kcal/mol
3,R49H,4.4 kcal/mol
4,Q46M,4.15 kcal/mol
5,Q46K,4.21 kcal/mol
6,Q46T,4.25 kcal/mol
7,Q46H,4.23 kcal/mol
8,Q46F,4.43 kcal/mol
9,Q46R,4 kcal/mol
10,Q46P,4.44 kcal/mol
11,Q46C,4.41 kcal/mol
12,Q46W,4.2 kcal/mol
13,Q46V,4.38 kcal/mol
14,Q46L,4.28 kcal/mol
15,Q46D,4.37 kcal/mol
16,Q46G,4.48 kcal/mol
17,Q46A,4.28 kcal/mol
18,Q46I,4.15 kcal/mol
19,Q46S,4.47 kcal/mol
20,Q46Y,4.17 kcal/mol
21,Q46N,4.26 kcal/mol
22,Q46E,4.18 kcal/mol
